Biological target: wild type CENP-A complexed with histone H4 (human, UniProt P49450 1-140; P62805 1-103)
Assay: pull-down

B1: MBP-HJURP^1−208 (domain or fragment)
chain: MLGTLRAMEGEDVEDDQLLQKLRASRRRFQRRMQRLIEKYNQPFEDTPVVQMATLTYETPQGLRIWGGRLIKERNEGEIQDSSMKPADRTDGSVQAAAWGPELPSHRTVLGADSKSGEVDATSDQEESVAWALAPAVPQSPLKNELRRKYLTQVDILLQGAEYFECAGNRAGRDVRVTPLPSLASPAVPAPGYCSRISRKSPGDPAKP
- binding result: binds

— article PMC6219920 (Developmental cell, 2018)
